Consider four molecules from patent US20230128075A1.

This assay deals with HSP70 (antigen; source and nucleotide state not stated) (Homo sapiens (Human)) (UniProt P0DMV8). The experiment in a line: biosensor, anti-human Fc capture, antigen 100 nM.
Sequence of HSP70 (antigen; source and nucleotide state not stated) (Homo sapiens (Human)) (P0DMV8 whole entry): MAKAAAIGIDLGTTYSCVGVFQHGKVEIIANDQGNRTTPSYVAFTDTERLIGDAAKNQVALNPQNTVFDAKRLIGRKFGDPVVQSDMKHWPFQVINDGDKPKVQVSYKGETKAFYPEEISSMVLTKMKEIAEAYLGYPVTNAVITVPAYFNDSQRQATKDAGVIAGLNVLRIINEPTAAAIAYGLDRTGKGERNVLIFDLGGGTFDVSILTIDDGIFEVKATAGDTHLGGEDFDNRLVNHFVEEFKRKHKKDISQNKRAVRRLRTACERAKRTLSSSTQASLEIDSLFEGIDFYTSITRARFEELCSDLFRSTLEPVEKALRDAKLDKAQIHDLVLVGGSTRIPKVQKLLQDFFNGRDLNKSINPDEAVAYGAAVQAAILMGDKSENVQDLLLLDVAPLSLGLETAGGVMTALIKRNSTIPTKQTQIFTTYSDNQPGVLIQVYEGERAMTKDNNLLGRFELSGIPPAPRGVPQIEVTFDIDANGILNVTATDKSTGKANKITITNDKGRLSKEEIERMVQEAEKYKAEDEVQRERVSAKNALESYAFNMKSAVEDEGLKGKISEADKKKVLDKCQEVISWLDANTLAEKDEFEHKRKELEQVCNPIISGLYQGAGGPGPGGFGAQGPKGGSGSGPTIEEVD

B1: h77A-1.52 (antibody, V domains shown)
VH: QIQLVQSGVEVKKPGASVKVSCKASGYIFTNYGMNWVRQAPGQGLEWMGWINTYTGEPRYADDFKGRFTFTTDTSTSTAYMELRSLRSDDTAVYFCARYDHRMDYWGQGTLVTVSS
VL: EIVLTQSPDSLAVSLGERATINCKSSQSLLNSGTRKNYLAWYQQKAGQSPKLLIYWTSTRESGVPDRFSGSGSGTDFTLTIDSLQAEDVAVYYCKQSYTLYTFGGGTKVEIK
As to B1, the % Diss is -115% and the X = 1495 amounted to 0.0133 nM.

B2: h77A-1.80 (antibody, V domains shown)
VH: QIQLVQSGAEVKKPGASVKVSCKASGYTFTNYGMNWVRQAPGQGLEWMGWINTYTGEPKYADDFKGRFTFTTDTSTSTAYMELRSLRSDDTAVYFCARYDHVMDYWGQGTLVTVSS
VL: EIVLTQSPDSLAVSLGERATINCKSSQSLLNSGTRKNYLSWYQQKPGQSPKLIIYWTSTRESGVPDRFSGSGSGTDFTLTIDSLQAEDVAVYYCKQSYTLYTFGGGTKVEIK
In the case of B2, the % Diss is -8.84% and the X = 610 was 0.0181 nM.

B3: h77A-1.54 (antibody, V domains shown)
VH: QIQLVQSGAEVKKPGASVKVSCKASGYTFTKYGMNWVRQAPGQGLEWMGWINTYTGEPKYGDDFKGRFTFTTDTSTSTAYMELRSLRSDDTAVYFCARYDHRMDYWGQGTLVTVSS
VL: EIVLTQSPDSLAVSLGERATINCKSSQSLLNSGTRKNYLAWYQQKAGQSPKLLIYWTSTRESGVPDRFSGSGSGTDFTLTIDSLQAEDVAVYYCKQSYTLYTFGGGTKVEIK
For B3, the % Diss was -41.2% and the X = 610 worked out at 0.0068 nM.

B4: h77A-1.79 (antibody, V domains shown)
VH: QIQLVQSGAEVKKPGASVKVSCKASGYTFTKYGMNWVRQAPGQGLEWMGWINTYTGEPRYADDFKGRFTFTTDTSTSTAYMELRSLRSDDTAVYFCARYDHRMDYWGQGTLVTVSS
VL: EIVLTQSPDSLAVSLGERATINCKSSQSLLNSGTRKNYLAWYQQKPGQSPKLLIYWTSTRESGVPDRFSGSGSGTDFTLTIDSLQAEDVAVYYCKQSYNLYTFGGGTKVEIK
With B4, the % Diss was -37.4% and the X = 610 was determined as 0.0131 nM.
